# Numbering of substitutions follows the chain as printed.
# T1: human C2 V418A (human, UniProt P06681 21-752)
# T1 sequence: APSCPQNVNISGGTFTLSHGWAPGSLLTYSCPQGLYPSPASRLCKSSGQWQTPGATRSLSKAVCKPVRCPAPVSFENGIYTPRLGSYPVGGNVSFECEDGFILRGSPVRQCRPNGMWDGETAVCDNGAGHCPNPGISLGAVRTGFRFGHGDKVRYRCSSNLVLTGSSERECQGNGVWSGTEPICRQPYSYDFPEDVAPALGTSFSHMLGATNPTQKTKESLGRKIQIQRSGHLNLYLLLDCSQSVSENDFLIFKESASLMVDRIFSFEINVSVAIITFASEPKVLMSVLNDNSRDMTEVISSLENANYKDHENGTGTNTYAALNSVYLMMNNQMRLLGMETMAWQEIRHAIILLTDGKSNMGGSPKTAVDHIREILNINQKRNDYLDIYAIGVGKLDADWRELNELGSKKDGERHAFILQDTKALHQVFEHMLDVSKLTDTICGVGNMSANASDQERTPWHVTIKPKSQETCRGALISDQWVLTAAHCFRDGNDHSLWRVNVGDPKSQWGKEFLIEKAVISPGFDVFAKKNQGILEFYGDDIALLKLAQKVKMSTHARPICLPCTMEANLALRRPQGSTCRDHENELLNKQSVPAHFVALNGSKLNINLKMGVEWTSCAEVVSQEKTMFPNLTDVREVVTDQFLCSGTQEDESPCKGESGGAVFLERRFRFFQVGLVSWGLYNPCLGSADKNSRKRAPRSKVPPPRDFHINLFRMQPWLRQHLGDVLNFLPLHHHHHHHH
# T2: human C2 I438A (human, UniProt P06681 21-752)
# T2 sequence: T1 sequence with A398V, I418A
# T3: human C2 H451A (human, UniProt P06681 21-752)
# T3 sequence: T1 sequence with A398V, H431A
# T4: human C2 L453A (human, UniProt P06681 21-752)
# T4 sequence: T1 sequence with A398V, L433A
# B1: RF16-214 (antibody, V domains shown)
# VH: EVQLLESGGGLVQPGGSLRLSCAASGFTFSWYQMMWVRQAPGKGLEWVSRIYPSGGGTAYADSVKGRFTISRDNSKNTLYLQMNSLRAEDTAVYYCARDAGYGDNWGQGTLVTVSS
# VL: QSALTQPPSVSVSPGQTASITCSGDKLGEKYASWYQQKAGQSPVMVIYQDRKRPSGIPERFSGSNSGNTATLTISGTQAMDEADYYCQAWDTRAVVFGGGTKLTVLG
# Tests used:
# Test in all cases: SPR; KD relative to WT C2;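 further: biacore SPR at 37 °C, anti-C2 mAbs captured on an anti-human IgG chip, alanine or serine C2 surface mutants tested, KD from 1:1 fit compared with wild-type C2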
# human C2 V418A = biological target: T1, human C2 V418A
# human C2 I438A = biological target: T2, human C2 I438A
# human C2 H451A = biological target: T3, human C2 H451A
# human C2 L453A = biological target: T4, human C2 L453A
binder,measurement,setting,value
B1,Fold diff,human C2 V418A,1 fold
same,Fold diff,human C2 I438A,1 fold
same,Fold diff,human C2 H451A,4 fold
same,Fold diff,human C2 L453A,45 fold
